Assay results: article PMC7749160, “Mycobacterial HelD is a nucleic acids-clearing factor for RNA polymerase” (Nature Communications, 2020)

Columns and labels:
[1] = molecular target: T1, β subunit of Mycobacterium smegmatis RNA polymerase (as in the recombinant core m2) (Mycobacterium smegmatis, UniProt P60281 1-1169); test: cryo-EM structure; HelD and RNAP core mixed at a molar ratio of 3:1, 4 °C, 15 min; complex isolated on Superose 6 Increase in 20 mM Tris-HCl pH 7.8, 150 mM NaCl, 10 mM MgCl2, 1 mM DTT; three states (I, II, III) from one sample; details: both partners purified
T1 construct: RNA polymerase subunit β, Mycobacterium smegmatis; In the cryo-EM sample it stood on one chain with β′ (β–β′ fusion of m2), within the core enzyme; also called RNAP β; source: E. coli BL21(DE3), purified as part of the RNAP core (β–β′ fusion)
T1 sequence: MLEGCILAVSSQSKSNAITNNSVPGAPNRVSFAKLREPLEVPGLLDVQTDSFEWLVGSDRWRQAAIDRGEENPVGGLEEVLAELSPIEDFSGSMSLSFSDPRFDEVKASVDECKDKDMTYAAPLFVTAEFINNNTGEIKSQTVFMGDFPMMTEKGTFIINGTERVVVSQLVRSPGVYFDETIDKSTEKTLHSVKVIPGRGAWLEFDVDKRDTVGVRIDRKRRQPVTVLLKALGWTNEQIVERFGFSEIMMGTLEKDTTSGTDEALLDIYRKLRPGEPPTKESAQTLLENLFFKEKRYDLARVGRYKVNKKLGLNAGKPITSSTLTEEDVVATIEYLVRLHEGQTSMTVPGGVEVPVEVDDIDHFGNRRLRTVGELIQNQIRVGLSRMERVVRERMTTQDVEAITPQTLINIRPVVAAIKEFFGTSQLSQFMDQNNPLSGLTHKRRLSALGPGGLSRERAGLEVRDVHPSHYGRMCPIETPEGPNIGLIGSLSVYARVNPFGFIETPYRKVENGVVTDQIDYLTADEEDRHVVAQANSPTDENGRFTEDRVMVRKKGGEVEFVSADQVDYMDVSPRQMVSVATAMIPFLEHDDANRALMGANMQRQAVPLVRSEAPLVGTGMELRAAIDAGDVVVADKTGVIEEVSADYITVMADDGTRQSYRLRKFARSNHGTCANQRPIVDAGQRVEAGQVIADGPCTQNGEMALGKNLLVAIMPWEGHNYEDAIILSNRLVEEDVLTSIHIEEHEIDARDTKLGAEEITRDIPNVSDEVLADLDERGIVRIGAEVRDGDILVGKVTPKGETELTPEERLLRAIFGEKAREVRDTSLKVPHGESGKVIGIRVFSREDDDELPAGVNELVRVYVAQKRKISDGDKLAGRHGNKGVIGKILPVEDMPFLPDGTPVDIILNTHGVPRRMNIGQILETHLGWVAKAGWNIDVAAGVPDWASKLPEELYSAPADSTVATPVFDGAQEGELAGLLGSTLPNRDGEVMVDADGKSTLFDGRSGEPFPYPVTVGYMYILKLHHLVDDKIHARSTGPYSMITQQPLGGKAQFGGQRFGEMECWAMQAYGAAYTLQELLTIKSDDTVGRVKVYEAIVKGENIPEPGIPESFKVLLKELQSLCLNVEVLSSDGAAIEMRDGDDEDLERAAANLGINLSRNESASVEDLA

[2] = molecular target: T2, β′ subunit of Mycobacterium smegmatis RNA polymerase (as in the recombinant core m2) (Mycobacterium smegmatis, UniProt A0QS66 1-1317); test: as above; details: both partners purified
T2 construct: RNA polymerase subunit β′, Mycobacterium smegmatis; In the cryo-EM sample it stood on one chain with β (β–β′ fusion of m2), within the core enzyme; also called RNAP β′; source: E. coli BL21(DE3), purified as part of the RNAP core (β–β′ fusion)

binding result [1]: binds
binding result [2]: binds
B1: Mycobacterium smegmatis HelD (MSMEG_2174), recombinant (natural protein, UniProt A0QUE0 2-736, looked up)
chain: SGRDYEDELQSERDYVAGLYARLDAERAQSQRRYAAALREHGGTAVERDAEVRALAKDIARLNVADNGLCFGRLDTLDDARLYIGRLGIFDRDNDFEPLLLDWRAPMARPFYVATAANPENMRRRRQFHTLGRKVVDFTDEILGRPTGAEHDATNDAALLAAVNAPRGEGMRDIVATIQAEQDQVIRLDHTGVLVIEGGPGTGKTVVALHRVAYLLYTYRKQMERHGVLVVGPTPAFLDHIGRVLPSLGESDAVFMTPGDFVPGLHVTAEDTPEAAEVKGSLKILDVLKAAVADRQELPSEPIPIDLSDVTMRIDAETAKWARDEARKTGLPHNEARAEFVDVVTYVVTERAVARIGRGWLTRDDKHAWEKMRADVVGELEDHEQFNAALDALWPILTPEDVLAQLYTSHERLRAAGAPECLWRADGEAWTVSDVPLLDELVDLLGRNKAADEAAERERREEEAYAAGVLDLMVDREDLMDDEDHLLAQDLIDAEELADRFKEQDNRELSERAAADREWTYGHVVVDEAQELSEMDWRLLMRRCPRRSFTIVGDLAQRRSPAGARSWGAMLDSYVPGRWVYKSLSVNYRTPAEIMAVAAAVLAEFAPDATPPDSVRACGVAPWARQVTDDDIASAIAEFVSEEAGREGTSVVIGPPDVPGTVPPSETKGLEFDAVLVVEPERILADGPRGAAELYVALTRATQRLGVLYRDALPQALAGLAEGDAAATVEQRTSA
notes: HelD, gene MSMEG_2174 of Mycobacterium smegmatis strain ATCC 700084/mc2 155; the tag is followed by the second amino acid of MSMEG_2174; Codon-optimised synthetic gene in pET302/NT-His; also called Msm HelD; source: E. coli Lemo 21 (DE3), purified (HisTrap, TEV protease, Superdex 75)
